Laboratory results published in the nanobody polyreactivity screen of Harvey et al. (2022).

Assay: yeast display, Sf9 membrane polyspecificity reagent, FACS + sequencing; frameworks hold sequencing errors
Procedure, shortened: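 A nanobody's polyreactivity label depends on the gate it was sorted from. Yeast display cells were stained with 10% biotinylated, detergent-solubilized Sf9 membrane reagent for 1 hour at 4 °C, enriched on streptavidin microbeads and sorted by FACS. The low and high (top ~1%) gates were set on anti-HA fluorescence for expression and streptavidin fluorescence for reagent binding.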

Sequence	polyreactivity (PSR sort gate)
QLQLVESGGGLVQAGGSLRLSCAASGFTFKYNARGWYSQAPGKARELVASISSGSTTYADSVKGRFTISRDNAKNTVYLQINSLKPEDTAVYYCAASVSRGKRFRYGYVFKMDHWGQGTQVTVSS	low polyreactivity
QLQLVESGGGLVQAGGSLRLSCAASGFTIRRYAMGCYRQAPGKERELVAAITWSAGSTYYADSVKGRFTISRDNAKNTVYLQMNSLKPEDTAVYYCAARWTRWGADSGYYWGKGTQVTVSS	high polyreactivity
QLQLVESGGGLVQAGGSLRLSCAASGISFSSYTMGWYRQAHGKERELVAAITWRGGRTYYADSVKGRFKISRDNAKNTVFLQMHSLKTEDTSVFYCAARDVAGYSTRFYYWGQGTQVTVSS	high polyreactivity
QLQLVESGGGLVQAGGSLRLSCAASGLIFTYYAMGWYRQAPGKERELVAAISGRGGSTYYADSVKGRFTISRDSAMKTVYLQMNSLNPEDTAVYYCAAVRWAGYVSDYGYWGQGTQVTVSS	high polyreactivity
QLQLVESGGGLVQAGGSLRLSCAASGLTFYHYAMGWYRQAPGKERELVAAISTSGGSTYYADSVKGRFTVSRDNAKNTVYLQMNSLKPEDTAVYYCATERTYRYDFWGQGTQVTVSS	high polyreactivity
QLQLVESGGGLVQAGGSLRLSCAASGLTSPGNAMGWYRQAPGKEMELVAAISSGGNTYYADSVKGRFTISRDNAKNTVYLQMNSLKPEDTAVYYCNAGGGTNYGSGYWFGYYYWGQGSQVTVSS	low polyreactivity
QLQLVESGGGLVQAGGSLRLSCAASGNTFLLNAMGWYRQAPGKERELVAGIRWGAGRSYYADSVKGRFTISRDNAMNTVYVQMNSLKAEDTAVYSGAADPWSGSDYWGQGTQVTVSS	low polyreactivity
QLQLVESGGGLVQAGGSLRLSCAASGNTFYQYAMGWYRQAPGKERELVAGIRYNGGSTYYADSVKGRFTISRDNAKNTVDLQMNSLKPEDTAVYYCATKGYTGYAYRYGYWGQGTQVTVSS	high polyreactivity
QLQLVESGGGLVQAGGSLRLSCAASGRIFSPYAMGWYSQAPGTASELVARISWRGSRTYFADSVKRRFTISRDNAKNTVYLQMNSLKPEDTAVYYCNAVVYRKPLRRDYWGQGTQVTVSS	high polyreactivity
QLQLVESGGGLVQAGGSLRLSCAASGRIFSRYAMGWYRQATGKERELVAAINKSGGSTYYADSVKGRFTFSRDNAKNTVYLQMNSLKPEDTAVYYCNAVYYWYKGDYWGQGTLVTVSS	high polyreactivity
QLQLVESGGGLVQAGGSLRLSCAASGRIFVKYAMGWYRQAPGKERELVAAISNGASTNYADSVKGRFTISRDNAKNTVYLQMNSLKPEDTAVYYCAASFSRYYRKRYDYWGQGTQVTVSS	high polyreactivity
QLQLVESGGGLVQAGGSLRLSCAASGRTFRYNAMGWYRQAPGKERELVASISWRGGSTYYADSVKGRFTISRDNAKNTVYLQMNSLKPEDTAVYYCVADAAHSEYDYWGQGTQVTVSS	high polyreactivity
QLQLVESGGGLVQAGGSLRLSCAASGRTFYQYAMGWYRKAPGKERELVAAITTSGGSTYYADSVKGRFTISRDNAKNTVYLQMNSLKPEYTAVYYCAAPYTGYRERGSYKSDYWGQGTQVTVSS	low polyreactivity
QLQLVESGGGLVQAGGSLRLSCAASGRTLQWSTMGGYRQAPGKERELVAVISKSGGRTYYADSVKGRFTISRDNAKNTVYLQMNSLKPEDTAVYYCNTPHRSSSVRSYGYWGQGTQVTVSS	high polyreactivity
QLQLVESGGGLVQAGGSLRLSCAASGSIFCQNNMGWYRQAPGKERELVDTITSAGSTYYADSVKGRFTISRANAQNTVYLQMNSLKPEYTAVFYCAAELYRYGFYVPIYPYSYDYWGQGTQVTVSS	low polyreactivity
QLQLVESGGGLVQAGGSLRLSCAASGSIFRFNAMGWYRQAPGKERELVAAISGDSGSTYYADSVKGRFTISRDTAKNTVYFQMNCLKPEDTAVYYCNARHGKIIFYLERYDYWGHGTQVTVSS	low polyreactivity
QLQLVESGGGLVQAGGSLRLSCAASGSIFSRNAMGWYRQAPAKERELVAGISTGGSTNYADSVKGRFTISRDNAKNTVYLLMNSLKTEVTAVYYCAAPLAYEGDYWGQGTQVTVSS	low polyreactivity
QLQLVESGGGLVQAGGSLRLSCAASGSIFYKYAMGWYRQAPGKERELVAAITWSGGRTYYADSVKGRFTISRDNAKNTVYLQMNSLIPEDTAVYYCAAVLRRYPGWVSDYNYWGQGTQVTVSS	high polyreactivity
QLQLVESGGGLVQAGGSLRLSCAASGSIIAAYAMGWYRQAPVKERELVAVITRSGGSTYYADSVKGRFTISRDNAKNTVYLQMNSLKPEDTAVYYCAAVGTRKMYYWGQGTQVTVSS	high polyreactivity
QLQLVESGGGLVQAGGSLRLSCAASGSTFAPYAMGWYRQAPGKERELVADISGGSTNYADSVKGRFTISRDNAKNTVYLQMNSLKPEDTAVYYCATEDHVETVRRLYGYWGLGTQVTVSS	low polyreactivity
QLQLVESGGGLVQAGGSLRLSCAASGSTFGFYAMGWYRQAPGKARELVAAISSSGSTYYADSVKGRFTISRDNAKITVYLQMNSLKPEDTAVYYCAAQPGYYDYDYWGQGTQVTVSS	low polyreactivity
QLQLVESGGGLVQAGGSLRLSCAASGSTFPTNAMGWYRQAPGKEMELVATITTGGSTYYADSVKGRFTISRDNAKNTVYLQMNCLKPEDTAVYYCNAEYVYLIFSVYLYDYDYWGQGTQVTVSS	low polyreactivity

Sequence	polyreactivity (PSR sort gate)
QLQLVESGGGLVQAGGSLRLSCAASGSTFRFNTMGWYRQAPGKERGLVACIAAGTTTNYADSVKGRFTISRDNAKNTVYLQMNSLKPEDAAVYYCAALNAFNTGHWYWGQGTQVTVSS	low polyreactivity
QLQLVESGGGLVQAGGSLRLSCAASGSTFTFNAMGWYRQAPGKERELVATISRGGSTSYADSVKGRFTISRDNAKNTVYLQMNSLNPEDTAVYYCAAVLYPSIYGFAGGKTDYDYWGQGTQVTVSS	low polyreactivity
QLQLVESGGGLVQAGGSLRLSCAASGSTFWSNTMGWYRQAPGKERELVATITDSGGITYYADSVKGRFTISRDNAKNTVYLQMNSLKPEDTAVYYCNVRKTWYGYSVTGRYDYWGQGTQVTVSS	low polyreactivity
QLQLVESGGGLVQAGGSLRLSCAASGSTFYAYAMGWNRPAPGKERELVAAISRGGNTYYADSVQGRFTISRDNAKNTVYLQMNSRKPEDTAVYYCAARYARGRSPLQYGYWGQGTQVTVSS	high polyreactivity
QLQLVESGGGLVQAGGSLRLSCAASGVIFRAYAMGSSRQAPGQERELVAAISGRGGSTYYADSVKGRFTISRDNAKNTVYLQMNSLKPEDTAVYYCNVPLIHPGAPYEYWGQGTQVTVSS	high polyreactivity
QLQLVESGGGLVQAGGSLRLSCAASRRIFSPNAMGWYRQAPGKESELVAAIRWNGGRTYYADSVKGRFTISRDTAKNTVYLQMNSLKPEDTAVYYCAATYFGPDYVRYDDWGQGTQVTVSS	high polyreactivity
QLQLVESGGGLVQAGGSLRLSCAATGRIFRFYALGWYRQATGKERELVADISRRGGSTYFADSVKGRFTISRDNAKNTVYVQMTSLKPEDTAVYYCNARWYRTGSTYHEDYWGQGTQVTVSS	high polyreactivity
QLQLVESGGGLVQAGGSLRLSCSASGGTFYRNAMGWSRQAPGKESELVPSISRTGGSTYYADSVKGRFTISRDNAKNTVYLQMNILKPEDTAVYYCANKQPRYSYFDNDYWGQGTQVTVSS	high polyreactivity
QLQLVESGGGLVQAGGSLSLSCAASGRIFYVYAMGWYRQAPGKEREFVAAITRRSGSTYYADSVKGRFTISRDNAKNTVYFQMNSLKPEDTSVYYCNARLKYAIPQVPPYDYWGQGTQVTVSS	high polyreactivity
QLQLVESGGGLVQAGGSRRLSCAASGSTFGRYAMGWYRQAPGKERELVAAISRRGTSTYYADSVKGRFTISRDNAKNTVYIQMNSLKPEDTAVYYSNAVTSSFYNRDSDYWGQGTQVTVSS	high polyreactivity
QLQLVESGGGLVQARGSLRLSCASSGSPFEGYAMGRSRQAPGKERELVARITIGGSTNYADSVKGRFTISRDNAKNSVYLQMNSLKPDDTAVYYCAADYRWGYYFTFYYWGQGTQVTVSY	high polyreactivity
QLQLVESGGWLVQAGGSLRLSCAASGGTIVTYAMGWYRQAPGKERELVAAISRRGGSTFSADSVKGRFTISRDNAKNTVYLQMNSLKPADTAVYYCAALSNHGYYIRMDYWGHGTQVTVSS	high polyreactivity
QLQLVESGRGLVQAGGSLRLSCAASGITFPGYAMGWYRQAPGKERELVAAIDWSGDGTYYADSVKGRFTISRENAKNTVYFQMNSLKPEDTAVFYCAKDNYPNHSTVLAVIYDNWGQGTQVTVSS	low polyreactivity
QLQLVESGRGLVQAGGSLRLSCAASGRTFVYYPMGSYRQAPGKERELVASISSVGTTKYADSVKGRFTISRDNAKNTVYLQMNCLKPEDTAVYYCAAVPLSRNIFDSWGQGTQVSVSS	low polyreactivity
QLQLVESGVGLVQAGGSLRLSCAPSGFTSTYYAMAWYSQAPGKERELVAAITSSGTRTYYADSVKGRFTISRENAKNTVYLQMNSLKPEDTAVYYCNAALRKGMYYWGQGTQVTVSS	high polyreactivity
QLRLVESGGGLVQAGGSLRLSCAAYGFIFRNNAMGWYRQAPGKERELVAVISFSGGSTYYADSVKGRFTISRDNAKHTVYLQMNSLKPEDTAVYYCAADDYQVQYDYWGQGTQVTVSS	low polyreactivity
QQQLVESGGGVVQAGGSLRLSCAASGSTFSGYAMGWYIPAPGKERELVAAIRKSGGSKYYADSVKGRFTISRDNAKNTVYLQMNSLKPEDTAVYYCNARRDLQYSQYKRYGYWGQGTQVNVSS	low polyreactivity
QVEHVDSGRGLVQAGGSLRLSCAASGSIIRSYAMGWYRQAPGKERELVAAISWRGGRTYYADSLKGRFTISRDNAKNTVYLQMNSLKPEDTAVYFCAARKRAQQGTRDHDYWGQGTQLTVSS	high polyreactivity
QVELVESAAGLVQAGASLRLSCAASGTTIKSYVMGWYRQPPGKETELVAAISSGDSTYYADSVKGRFTISRDNAKNTVYLQMNSLNPEDTAVYYCAADPCYSVEPWEDDYWGQGSQVTVSS	low polyreactivity
QVELVESGGGLVQAGGSLRLSCAASGRTFTPYAMGWYRQAPGKEREFVAAISIVGRTKYADSVKGRFTISRDNAKNTVYLQMNSLKPEDTAVYYCNAQDSRDRKFYWGYTRGHWGQGTQVTVSS	low polyreactivity
QVELVESGGGLVQAGGSLRLSCAASGSIFTVYAMGWYRQAPGKERELVAAISSSGGRTYYADSVKGRFTISRDNAKNTVYLQMNSLKPEDTAVYYCNTGPGQSFRYNYWGQGTQVTVSS	high polyreactivity
